From article PMC10360031

Target: cell-surface vimentin (CSV) on mouse embryonic fibroblasts mEF +/+ (mouse (endogenous in mEF)) (UniProt P20152)
Test: AFM single-molecule force spectroscopy

Row | Substance | mean rupture force at 5 um/s [pN] | binding probability (specific adhesion events) (% of force curves)
1 | Brazil P.1 RBD (from UniProt P0DTC2) (domain or fragment) | 31.3 | –
2 | South Africa B.1.135 RBD (from UniProt P0DTC2) (domain or fragment) | 25.8 | –
3 | wild-strain SARS-CoV-2 spike protein RBD (from UniProt P0DTC2) (domain or fragment) | – | < 10
